Assay results reported in publication PMC9861716.

Target: His-Fc-G67 polypeptide
Experiment: co-sedimentation; Herceptin on Herceptin-modified liposomes (Her-Lipo), evaluated semi-quantitatively by SDS-PAGE and silver staining; no data shown

Herceptin (trastuzumab) (antibody) showed an amount of Herceptin on Her-Lipo per 100 µg lipid (µg of Herceptin per 100 µg lipid) of 0.4.
